In patent US20020151473A1 one finds Kd data, which are given here for one substance.

This test has as its target IgG. The experiment in a line: microcalorimetry and surface plasmon resonance (same value stated for both). In general terms: In SPR one partner is held on a chip, and binding of the other changes the refractive index at the surface.

As usually defined, the Kd is the equilibrium constant for the complex coming apart. A high value points to weaker binding. With “cyclized (locked helix) peptide FNM(5)QQRRFY(6)ALH”, the Kd was determined as 100 µM.
